Results as given in the supplement of paper PMC9170038.

Tested on: MS2 coat protein
Assay: apparent KD of MS2 coat protein; designed switch direction (-1 OFF switch, 1 ON switch): 1; higher = weaker reporter binding
In short: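 Designed RNA switches were transcribed on Illumina chips by stalled E. coli RNA polymerase and titrated with SNAP-549-labelled MS2 coat protein from 0.7 or 1.5 nM, doubling to 3 µM. Step length ran from 0.8–1.5 h at the lowest concentration to 10–20 min at the highest. The apparent KD is the median over clusters for each design, from curve-fitted normalised cluster fluorescence.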

[1] = input ligand: microRNA oligo, concentration not stated
[2] = Eterna round: R95, input ligand: FMN 200 uM
[3] = Eterna round: R95, input ligand: microRNA oligo, concentration not stated
[4] = Eterna round: R95, input ligand: none

Sequence | apparent KD of MS2 coat protein (input ligand: FMN 200 uM) [nM] | apparent KD of MS2 coat protein [1] [nM] | apparent KD of MS2 coat protein (input ligand: none) [nM] | apparent KD of MS2 coat protein [2] [nM] | apparent KD of MS2 coat protein [3] [nM] | apparent KD of MS2 coat protein [4] [nM]
AGGCUCAGACGAGGAUAUAUGUGAUCACAUGAGGAUCACCCAUGUCUCGAGCUUCGGCUCGAGACAUAGAAGGCGUCUGAGCCA [SSNG2/3-A1] (Eterna round: R96, puzzle: Same State NG 2) | 505 | 8.91 | 21.4 | – | – | –
UGGCUCAGACUAGGAUAUGAUCAUGGCGCUUCGGCGCAUACAUGAGGAUCACCCAUGUAAAGUGAUCAGAAGGAGUCUGAGCCU [SSNG2/7-C3] (Eterna round: R96, puzzle: Same State NG 2) | 14.2 | 10.6 | 19.7 | – | – | –
GGCACAGCGUGAGGAUAUCGGUACGCACGUAGUCGAGAAGGUACCUGAAAUGGUACACAUGAGGAUCACCCAUGUGACUGGGCA [Eternabot solution 14] (Eterna round: R96, puzzle: Same State NG 1) | 40.7 | 27.1 | 41.6 | – | – | –
UUGUUUUGAAAUUAACAUGAGGAUCACCCAUGUCUUGACACAGAGGAUAUACAUGAAUGUAGGUAGUAGAAGGCUGUUUAGUGU [JR_SSNG3_Sub098] (Eterna round: R96, puzzle: Same State NG 3) | – | 57.2 | – | – | – | –
ACAUGAAAUUGAGGAUAUUUUGUACCUACAUGUGACAUGAGGAUCACCCAUGUGGUAAGUAUAAGAAAGAAGGCAAAGAUAUGU [Equivalence 7 - Jieux - Same State NG 2] (Eterna round: R96, puzzle: Same State NG 2) | 25.6 | 30.8 | 64.9 | – | – | –
UUCACCUUUUUUUACAUGAGGAUCACCCAUGUUUUUUUUACGUAGGAUAUCGAUGCUUGUUUUUUCGAGAAGGACGAUGUAAGU [JR_SSND3_Sub052] (Eterna round: R96, puzzle: Same State NG 3) | 16.7 | 12.2 | 18.2 | – | – | –
AAACUGGAGGACAAGGAUAUGUGCUCUACGACAUGAGGAUCACCCAUGUGAGACGUAGUAGUGAAACAGAAGGUGUCCUAUUGUA [Tiarri] (Eterna round: R96, puzzle: Same State 2) | – | 14.2 | – | – | – | –
GUGGUCAGACAUGAGGAUCACCCAUGUGGAAUAAAUAAGGAGAAGGAUAUGCAAUAUAGGAUAUAGUAGAAGGUCUGGUUGGUG (Eterna round: R96, puzzle: Same State NG 3) | – | 63.4 | – | – | – | –
UUGCUCGUGUGAGGAUAUGCCGCCGUUUCGGCUGCAGAAGGUACUCUUUUACAUGAGGAUCACCCAUGUCUCUGUUGUUUCGUG [salish99_SSNG1_r04_937] (Eterna round: R96, puzzle: Same State NG 1) | 252 | 96.4 | 148 | – | – | –
GGAGCCUGCACUGAGGAUAUUCAUAGUGUAACAUGAGGAUCACCCAUGUGUCGCCGUAGCGACUGGGAGAAGGCAGUGCGGCUCG [JL-ss2-3.06 ViennaUCT mod] (puzzle: Same State 2) | – | – | – | 38.4 | 180 | 325
AGAUCAUGACGAGGAUAUGGUACAUGAGGAUCACCCAUGUAUGUACCACGACGCGUACGUCGAAUCCAGAAGGCGUCGUGGUCA [JL SSNG2 1.07] (Eterna round: R96, puzzle: Same State NG 2) | 23.3 | 27.7 | 41.6 | – | – | –
CUAAAAGGAUGAGGAUAUGCAGAGGAUCACCCUGUAGAAGGCAACAGAUGAGGAUAUGCAGAGGAUCACCCUGUAGAAGGCAAC [pwkr ssNG DX.2] (Eterna round: R96, puzzle: Same State NG 1) | 233 | 56.8 | 94.1 | – | – | –
GUUGAGAAAUGAGGAUAUGCAUGGAAGACACAUGAGGAUCACCCAUGUGGGAGGGAAACCAGGAGGUAGAAGGCAUUGGGAAAC [AK SSNG2-V2-24] (Eterna round: R96, puzzle: Same State NG 2) | 35.7 | 35.5 | 55.1 | – | – | –
ACAUGAGAGAUAGGAUAUCUUGUACCUACAUGUGACAUGAGGAUCACCCAUGUGGUAAGUAUGAGAGAGAAGGAUCAGAUAUGU [Equivalence 36 - Jieux - Same State NG 2] (Eterna round: R96, puzzle: Same State NG 2) | 14.1 | 14.3 | 21.2 | – | – | –
AGAGGAGGAGCAGGAUAUUCGACGGAGGACGUGGAAGAAGGGUUCAUGCGAUGACAUGAGGAUCACCCAUGUACCGCGCGUCGA [AK SSNG1-V2-15.1] (Eterna round: R96, puzzle: Same State NG 1) | 143 | 106 | 478 | – | – | –
CGUCCGGCCUGUGCUGGCCGGUUGCUUGUACAUGAGGAUCACCCAUGUUCUUGUGCAGGCUUUUUGCUCGUCUUGUG [salish99_mir208a_018] (puzzle: Sensor for hsa-mir-208a) | – | – | – | 212 | 25 | 265

Sequence | apparent KD of MS2 coat protein (input ligand: FMN 200 uM) [nM] | apparent KD of MS2 coat protein [1] [nM] | apparent KD of MS2 coat protein (input ligand: none) [nM] | apparent KD of MS2 coat protein [2] [nM] | apparent KD of MS2 coat protein [3] [nM] | apparent KD of MS2 coat protein [4] [nM]
GUUAUACAUGAGGAUCACCCAUGUCAAUGUAGUCGAGGAUAUGGGUUGCUAUGAGGCGUACUAGAAGGCGAGGAGU [JL-ss1-3.17 ViennaUCT mod] (puzzle: Same State 1) | – | – | – | 297 | 98.8 | 265
UGGCUCAGACUAGGAUAUAUGUGGUCACAUGAGGAUCACCCAUGUCUCGAGCUUCGGCUCGAGGCAUAGAAGGAGUCUGAGCCU [SSNG2/5-D3] (Eterna round: R96, puzzle: Same State NG 2) | 249 | 15.3 | 59.9 | – | – | –
UGUUGUAUUACAGGAUAUCUAUUGUUUUUAUAUAGAGAAGGGUAUUCACAUGAGGAUCACCCAUGUAUAUACGAGGAAGUUGUG [JMF's solution 84] (Eterna round: R96, puzzle: Same State NG 1) | – | 33.2 | – | – | – | –
CAGCGCUGUCGAGAGGAUAUGCGGUGAUAGACAUGAGGAUCACCCAUGUUAGCGAUAGCAUUACGGUAGAAGGCUCUACAGCUGC [Soteed - 12] (puzzle: Same State 2) | – | – | – | 29 | 73.3 | 103
UCUUGGUUUUUGCUCGUUUUUUGUGUUGAACAUGAGGAUCACCCAUGUAUUAUACGGUCCGGUUUAGUAGUGGUCCA [JMF 78] (puzzle: Sensor for hsa-mir-208a) | – | – | – | 86.1 | 83 | 113
CUGAGCAAGCAAGGAUAUCACGUCGUUUAGACGUGAGAAGGUGCUCCUUACAUGAGGAUCACCCAUGUAUAACAUGAAGCUCAG [SSNG1/10-A3] (Eterna round: R96, puzzle: Same State NG 1) | 150 | 273 | 870 | – | – | –
AUUAAACAUGAGGAUCACCCAUGUCAACAAAGUCGAGGAUAUGGGCAUAUUAUCUUCUUUCCAGAAGGCGAAUAAU [salish99_ss1_r3_089] (puzzle: Same State 1) | – | – | – | 431 | 136 | 404
GCUAGAAUAAAAGCCAACAUGAGGAUCACCCAUGUAUGUUGGCAGGAUAUCGUAUGCAAAGCAUACGAGAAGGGCCAUACUAGC [Mat - Same State NG 3 - JL Mod - D24] (Eterna round: R96, puzzle: Same State NG 3) | 49.8 | 96.7 | 121 | – | – | –
UUUGGGUGGCUGGAGGAUAUCCUUGUUGUUACAUGAGGAUCACCCAUGUGCCGCGCGGUUCGCGAGGAGAAGGCUGGCGGCCGUU (puzzle: Same State 2) | – | – | – | – | 169 | –
GCCAUCGCAUGAGGAUAUGGCACCGUUUCGGUGCCAGAAGGCAUGUCGAAUGACAUGAGGAUCACCCAUGUAGUAUAGAUGGCA [JL Fiskers NG1ss - 33 mod 10] (Eterna round: R96, puzzle: Same State NG 1) | 59 | 377 | 851 | – | – | –
GCGAGCGUACUUGCUACAUGAGGAUCACCCAUGUUCGUUGGACAGGAUAUGGUACCGUUUCGGUACCAGAAGGGUUCAUCAUGU [JL SSNG3 3.75] (Eterna round: R96, puzzle: Same State NG 3) | 356 | 188 | 278 | – | – | –
AUUUAACAAGCUUUUUGCUCGUCUUAUAAACAUGAGGAUCACCCAUGUAAUAGCGUGAGAGUAAUUUUUUAAAUAAU [JMF 96] (puzzle: Sensor for hsa-mir-208a) | – | – | – | 20.3 | 34.3 | 17
AAAACACAUGAGGAUCACCCAUGUACCAGGUACAUAGGAUAUCCAGGCGCCAGAUGGCGCGGAGAAGGAUGGAAAA [Xeveoned] (puzzle: Same State 1) | – | – | – | 90.8 | 162 | 251
GCCAUCGUGUGAGGAUAUGGCACCGAAACGGUGCCAGAAGGCAUGUCAAUUGACAUGAGGAUCACCCAUGUAUUAGCGAUGGCA [Mat - Same State NG 1 - JL mod - D86] (Eterna round: R96, puzzle: Same State NG 1) | 181 | 994 | 1360 | – | – | –
AGAAAACAUGAGGAUCACCCAUGUAUAGUGAAUACAGGAUAUCAUCGACGGAAUAGUUGAUGAGAAGGGUGAUCGC [Gebiatan] (puzzle: Same State 1) | – | – | – | 13.2 | 14.4 | 10.4
CUGAGCAAUCUAGGAUAUCACGUCGAAUAGACGUGAGAAGGAGAUCAUAACAUGAGGAUCACCCAUGUAUUACAUGAAGCUCAG [SSNG1/7-A1] (Eterna round: R96, puzzle: Same State NG 1) | 13.4 | 11.6 | 17.9 | – | – | –
